{
  "source": "patent US20100130424A1",
  "about": "(Janssen / Centocor, published 2010)",
  "note": "No end group written: not given here. *: point of attachment. Succinimide(1-Et,3-yl) = CCN1C(=O)CC(*)C1=O",
  "data": [
    {"biological_target": "T1, human CRH receptor type 2 (human, UniProt Q13324 1-411)", "T1 sequence (looked up)": "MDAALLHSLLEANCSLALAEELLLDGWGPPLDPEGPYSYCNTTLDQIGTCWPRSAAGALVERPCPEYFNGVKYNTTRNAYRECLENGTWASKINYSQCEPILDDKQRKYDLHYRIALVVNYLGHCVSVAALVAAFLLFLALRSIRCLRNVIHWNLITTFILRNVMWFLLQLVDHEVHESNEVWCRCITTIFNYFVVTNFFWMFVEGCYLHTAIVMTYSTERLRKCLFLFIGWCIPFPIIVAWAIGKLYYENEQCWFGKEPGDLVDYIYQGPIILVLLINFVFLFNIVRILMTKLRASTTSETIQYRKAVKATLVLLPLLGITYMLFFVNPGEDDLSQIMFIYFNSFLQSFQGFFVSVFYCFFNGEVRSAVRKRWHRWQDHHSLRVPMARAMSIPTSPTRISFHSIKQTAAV", "assay": "cell-based or functional assay", "units": {"Log DR against h-SCP, cAMP": "log10 ratio"}, "values": [
      {"binder": "TKFTLSLDVPTNIMNLLFNIAKAKNLRAQAAANAC(Succinimide(1-Et,3-yl))LMAQI-NH2 (N-terminus assumed; SMILES CC[C@H](C)[C@H](NC(=O)[C@H](CCC(N)=O)NC(=O)[C@H](C)NC(=O)[C@H](CCSC)NC(=O)[C@H](CC(C)C)NC(=O)[C@H](CSC1CC(=O)N(CC)C1=O)NC(=O)[C@H](C)NC(=O)[C@H](CC(N)=O)NC(=O)[C@H](C)NC(=O)[C@H](C)NC(=O)[C@H](C)NC(=O)[C@H](CCC(N)=O)NC(=O)[C@H](C)NC(=O)[C@H](CCCNC(=N)N)NC(=O)[C@H](CC(C)C)NC(=O)[C@H](CC(N)=O)NC(=O)[C@H](CCCCN)NC(=O)[C@H](C)NC(=O)[C@H](CCCCN)NC(=O)[C@H](C)NC(=O)[C@@H](NC(=O)[C@H](CC(N)=O)NC(=O)[C@H](Cc1ccccc1)NC(=O)[C@H](CC(C)C)NC(=O)[C@H](CC(C)C)NC(=O)[C@H](CC(N)=O)NC(=O)[C@H](CCSC)NC(=O)[C@@H](NC(=O)[C@H](CC(N)=O)NC(=O)[C@@H](NC(=O)[C@@H]1CCCN1C(=O)[C@@H](NC(=O)[C@H](CC(=O)O)NC(=O)[C@H](CC(C)C)NC(=O)[C@H](CO)NC(=O)[C@H](CC(C)C)NC(=O)[C@@H](NC(=O)[C@H](Cc1ccccc1)NC(=O)[C@H](CCCCN)NC(=O)[C@@H](N)[C@@H](C)O)[C@@H](C)O)C(C)C)[C@@H](C)O)[C@@H](C)CC)[C@@H](C)CC)C(N)=O)", "note": "[Cys-variant of stresscopin peptide with N-Ethylsuccinimide (NES) reactive group, SEQ ID NO: 43]", "Log DR against h-SCP, cAMP": -0.32, "pA50, cAMP": "9.79 -log M"},
      {"binder": "TKFTLSLDVPTNIMNLLFNIAKAKNLRAQAC(Succinimide(1-Et,3-yl))ANAHLMAQI-NH2 (N-terminus assumed; SMILES CC[C@H](C)[C@H](NC(=O)[C@H](CCC(N)=O)NC(=O)[C@H](C)NC(=O)[C@H](CCSC)NC(=O)[C@H](CC(C)C)NC(=O)[C@H](Cc1c[nH]cn1)NC(=O)[C@H](C)NC(=O)[C@H](CC(N)=O)NC(=O)[C@H](C)NC(=O)[C@H](CSC1CC(=O)N(CC)C1=O)NC(=O)[C@H](C)NC(=O)[C@H](CCC(N)=O)NC(=O)[C@H](C)NC(=O)[C@H](CCCNC(=N)N)NC(=O)[C@H](CC(C)C)NC(=O)[C@H](CC(N)=O)NC(=O)[C@H](CCCCN)NC(=O)[C@H](C)NC(=O)[C@H](CCCCN)NC(=O)[C@H](C)NC(=O)[C@@H](NC(=O)[C@H](CC(N)=O)NC(=O)[C@H](Cc1ccccc1)NC(=O)[C@H](CC(C)C)NC(=O)[C@H](CC(C)C)NC(=O)[C@H](CC(N)=O)NC(=O)[C@H](CCSC)NC(=O)[C@@H](NC(=O)[C@H](CC(N)=O)NC(=O)[C@@H](NC(=O)[C@@H]1CCCN1C(=O)[C@@H](NC(=O)[C@H](CC(=O)O)NC(=O)[C@H](CC(C)C)NC(=O)[C@H](CO)NC(=O)[C@H](CC(C)C)NC(=O)[C@@H](NC(=O)[C@H](Cc1ccccc1)NC(=O)[C@H](CCCCN)NC(=O)[C@@H](N)[C@@H](C)O)[C@@H](C)O)C(C)C)[C@@H](C)O)[C@@H](C)CC)[C@@H](C)CC)C(N)=O)", "note": "[Cys-variant of stresscopin peptide with N-Ethylsuccinimide (NES) reactive group, SEQ ID NO: 46]", "Log DR against h-SCP, cAMP": 0.04, "pA50, cAMP": "9.43 -log M"},
      {"binder": "TKFTLSLDVPTNIMNLLFNIAKAKNLRAQAAAC(Succinimide(1-Et,3-yl))AHLMAQI-NH2 (N-terminus assumed; SMILES CC[C@H](C)[C@H](NC(=O)[C@H](CCC(N)=O)NC(=O)[C@H](C)NC(=O)[C@H](CCSC)NC(=O)[C@H](CC(C)C)NC(=O)[C@H](Cc1c[nH]cn1)NC(=O)[C@H](C)NC(=O)[C@H](CSC1CC(=O)N(CC)C1=O)NC(=O)[C@H](C)NC(=O)[C@H](C)NC(=O)[C@H](C)NC(=O)[C@H](CCC(N)=O)NC(=O)[C@H](C)NC(=O)[C@H](CCCNC(=N)N)NC(=O)[C@H](CC(C)C)NC(=O)[C@H](CC(N)=O)NC(=O)[C@H](CCCCN)NC(=O)[C@H](C)NC(=O)[C@H](CCCCN)NC(=O)[C@H](C)NC(=O)[C@@H](NC(=O)[C@H](CC(N)=O)NC(=O)[C@H](Cc1ccccc1)NC(=O)[C@H](CC(C)C)NC(=O)[C@H](CC(C)C)NC(=O)[C@H](CC(N)=O)NC(=O)[C@H](CCSC)NC(=O)[C@@H](NC(=O)[C@H](CC(N)=O)NC(=O)[C@@H](NC(=O)[C@@H]1CCCN1C(=O)[C@@H](NC(=O)[C@H](CC(=O)O)NC(=O)[C@H](CC(C)C)NC(=O)[C@H](CO)NC(=O)[C@H](CC(C)C)NC(=O)[C@@H](NC(=O)[C@H](Cc1ccccc1)NC(=O)[C@H](CCCCN)NC(=O)[C@@H](N)[C@@H](C)O)[C@@H](C)O)C(C)C)[C@@H](C)O)[C@@H](C)CC)[C@@H](C)CC)C(N)=O)", "note": "[Cys-variant of stresscopin peptide with N-Ethylsuccinimide (NES) reactive group, SEQ ID NO: 44]", "Log DR against h-SCP, cAMP": "~1.97", "pA50, cAMP": "~7.5 -log M"},
      {"binder": "TKFTLSLDVPTNIMNLLFNIAKAKNLRAQAAC(Succinimide(1-Et,3-yl))NAHLMAQI-NH2 (N-terminus assumed; SMILES CC[C@H](C)[C@H](NC(=O)[C@H](CCC(N)=O)NC(=O)[C@H](C)NC(=O)[C@H](CCSC)NC(=O)[C@H](CC(C)C)NC(=O)[C@H](Cc1c[nH]cn1)NC(=O)[C@H](C)NC(=O)[C@H](CC(N)=O)NC(=O)[C@H](CSC1CC(=O)N(CC)C1=O)NC(=O)[C@H](C)NC(=O)[C@H](C)NC(=O)[C@H](CCC(N)=O)NC(=O)[C@H](C)NC(=O)[C@H](CCCNC(=N)N)NC(=O)[C@H](CC(C)C)NC(=O)[C@H](CC(N)=O)NC(=O)[C@H](CCCCN)NC(=O)[C@H](C)NC(=O)[C@H](CCCCN)NC(=O)[C@H](C)NC(=O)[C@@H](NC(=O)[C@H](CC(N)=O)NC(=O)[C@H](Cc1ccccc1)NC(=O)[C@H](CC(C)C)NC(=O)[C@H](CC(C)C)NC(=O)[C@H](CC(N)=O)NC(=O)[C@H](CCSC)NC(=O)[C@@H](NC(=O)[C@H](CC(N)=O)NC(=O)[C@@H](NC(=O)[C@@H]1CCCN1C(=O)[C@@H](NC(=O)[C@H](CC(=O)O)NC(=O)[C@H](CC(C)C)NC(=O)[C@H](CO)NC(=O)[C@H](CC(C)C)NC(=O)[C@@H](NC(=O)[C@H](Cc1ccccc1)NC(=O)[C@H](CCCCN)NC(=O)[C@@H](N)[C@@H](C)O)[C@@H](C)O)C(C)C)[C@@H](C)O)[C@@H](C)CC)[C@@H](C)CC)C(N)=O)", "note": "[Cys-variant of stresscopin peptide with N-Ethylsuccinimide (NES) reactive group, SEQ ID NO: 45]", "Log DR against h-SCP, cAMP": -0.01, "pA50, cAMP": "9.48 -log M"},
      {"binder": "TKFTLSLDVPTNIMNLLFNIAKAKNLRCQAAANAHLMAQI (NES-PEG MW12000 on Cys 28; C-terminal amide)", "note": "[Pegylated Cys-variant CRHR2 peptide agonist (NES-PEG MW12000), SEQ ID NO: 97]", "Log DR against h-SCP, cAMP": "~0.74", "pA50, cAMP": "~9 -log M"},
      {"binder": "TKFTLSLDVPTNIMNLLFNIAKAKNLRCQAAANAHLMAQI (NES-PEG MW40000 on Cys 28; C-terminal amide)", "note": "[Pegylated Cys-variant CRHR2 peptide agonist (NES-PEG MW40000), SEQ ID NO: 100]", "Log DR against h-SCP, cAMP": 1.1, "pA50, cAMP": "8.64 -log M"},
      {"binder": "TKFTLSLDVPTNIMNLLFNIAKAKNLRCQAAANAHLMAQI (NES-PEG-NEM MW20000 on Cys 28 (double-ended linear PEG with an N-Ethylmaleimide cap at the non-linked end); C-terminal amide)", "note": "[Pegylated Cys-variant CRHR2 peptide agonist (NES-PEG-NEM MW20000), SEQ ID NO: 98]", "Log DR against h-SCP, cAMP": 0.18, "pA50, cAMP": "9.5 -log M"},
      {"binder": "TKFTLSLDVPTNIMNLLFNIAKAKNLRCQAAANAHLMAQI (NES-PEG MW30000 on Cys 28; C-terminal amide)", "note": "[Pegylated Cys-variant CRHR2 peptide agonist (NES-PEG MW30000), SEQ ID NO: 99]", "Log DR against h-SCP, cAMP": 0.8, "pA50, cAMP": "8.94 -log M"},
      {"binder": "TKFTLSLDVPTNIMNLLFNIAKAKNLRCQAAANAHLMAQI (NES-PEG MW80000, branched, on Cys 28; C-terminal amide)", "note": "[Pegylated Cys-variant CRHR2 peptide agonist (NES-PEG MW80000 & BRANCHED), SEQ ID NO: 101]", "Log DR against h-SCP, cAMP": 1.9, "pA50, cAMP": "7.84 -log M"},
      {"binder": "TKFTLSLDVPTNIMNLLFNIAKAKNLRC(Succinimide(1-Et,3-yl))QAAANAHLMAQI-NH2 (N-terminus assumed; SMILES CC[C@H](C)[C@H](NC(=O)[C@H](CCC(N)=O)NC(=O)[C@H](C)NC(=O)[C@H](CCSC)NC(=O)[C@H](CC(C)C)NC(=O)[C@H](Cc1c[nH]cn1)NC(=O)[C@H](C)NC(=O)[C@H](CC(N)=O)NC(=O)[C@H](C)NC(=O)[C@H](C)NC(=O)[C@H](C)NC(=O)[C@H](CCC(N)=O)NC(=O)[C@H](CSC1CC(=O)N(CC)C1=O)NC(=O)[C@H](CCCNC(=N)N)NC(=O)[C@H](CC(C)C)NC(=O)[C@H](CC(N)=O)NC(=O)[C@H](CCCCN)NC(=O)[C@H](C)NC(=O)[C@H](CCCCN)NC(=O)[C@H](C)NC(=O)[C@@H](NC(=O)[C@H](CC(N)=O)NC(=O)[C@H](Cc1ccccc1)NC(=O)[C@H](CC(C)C)NC(=O)[C@H](CC(C)C)NC(=O)[C@H](CC(N)=O)NC(=O)[C@H](CCSC)NC(=O)[C@@H](NC(=O)[C@H](CC(N)=O)NC(=O)[C@@H](NC(=O)[C@@H]1CCCN1C(=O)[C@@H](NC(=O)[C@H](CC(=O)O)NC(=O)[C@H](CC(C)C)NC(=O)[C@H](CO)NC(=O)[C@H](CC(C)C)NC(=O)[C@@H](NC(=O)[C@H](Cc1ccccc1)NC(=O)[C@H](CCCCN)NC(=O)[C@@H](N)[C@@H](C)O)[C@@H](C)O)C(C)C)[C@@H](C)O)[C@@H](C)CC)[C@@H](C)CC)C(N)=O)", "note": "[Cys-variant of stresscopin peptide with N-Ethylsuccinimide (NES) reactive group, SEQ ID NO: 47]", "Log DR against h-SCP, cAMP": -0.03, "pA50, cAMP": "9.5 -log M"}
    ]}
  ]
}
